Reference: IntAct's records for PubMed 30126976

B1: Plasma membrane calcium-transporting ATPase 2 (Homo sapiens), Q01814 (parent)
chain: MGDMTNSDFYSKNQRNESSHGGEFGCTMEELRSLMELRGTEAVVKIKETYGDTEAICRRLKTSPVEGLPGTAPDLEKRKQIFGQNFIPPKKPKTFLQLVWEALQDVTLIILEIAAIISLGLSFYHPPGEGNEGCATAQGGAEDEGEAEAGWIEGAAILLSVICVVLVTAFNDWSKEKQFRGLQSRIEQEQKFTVVRAGQVVQIPVAEIVVGDIAQVKYGDLLPADGLFIQGNDLKIDESSLTGESDQVRKSVDKDPMLLSGTHVMEGSGRMLVTAVGVNSQTGIIFTLLGAGGEEEEKKDKKGVKKGDGLQLPAADGAAASNAADSANASLVNGKMQDGNVDASQSKAKQQDGAAAMEMQPLKSAEGGDADDRKKASMHKKEKSVLQGKLTKLAVQIGKAGLVMSAITVIILVLYFTVDTFVVNKKPWLPECTPVYVQYFVKFFIIGVTVLVVAVPEGLPLAVTISLAYSVKKMMKDNNLVRHLDACETMGNATAICSDKTGTLTTNRMTVVQAYVGDVHYKEIPDPSSINTKTMELLINAIAINSAYTTKILPPEKEGALPRQVGNKTECGLLGFVLDLKQDYEPVRSQMPEEKLYKVYTFNSVRKSMSTVIKLPDESFRMYSKGASEIVLKKCCKILNGAGEPRVFRPRDRDEMVKKVIEPMACDGLRTICVAYRDFPSSPEPDWDNENDILNELTCICVVGIEDPVRPEVPEAIRKCQRAGITVRMVTGDNINTARAIAIKCGIIHPGEDFLCLEGKEFNRRIRNEKGEIEQERIDKIWPKLRVLARSSPTDKHTLVKGIIDSTHTEQRQVVAVTGDGTNDGPALKKADVGFAMGIAGTDVAKEASDIILTDDNFSSIVKAVMWGRNVYDSISKFLQFQLTVNVVAVIVAFTGACITQDSPLKAVQMLWVNLIMDTFASLALATEPPTETLLLRKPYGRNKPLISRTMMKNILGHAVYQLALIFTLLFVGEKMFQIDSGRNAPLHSPPSEHYTIIFNTFVMMQLFNEINARKIHGERNVFDGIFRNPIFCTIVLGTFAIQIVIVQFGGKPFSCSPLQLDQWMWCIFIGLGELVWGQVIATIPTSRLKFLKEAGRLTQKEEIPEEELNEDVEEIDHAERELRRGQILWFRGLNRIQTQIRVVKAFRSSLYEGLEKPESRTSIHNFMAHPEFRIEDSQPHIPLIDDTDLEEDAALKQNSSPPSSLNKNNSAIDSGINLTTDTSKSATSSSPGSPIHSLETSL
B2: FAST kinase domain-containing protein 5, mitochondrial (Homo sapiens), Q7L8L6 (parent)
chain: MAATLKSLKLVRYRAFCSPSAFGAVRSVSYWNVSSTQHGGQDPPEHISLCHSAKKVKNICSTFSSRRILTTSSAHPGLEFSKTSSSKASTLQLGSPRATGVDEEDVEVFDSFENMRVFLQLRPEYRVHSYNASETSQLLSVSEGELILHKVRVNQNNLQAQVIVDYLCKLSSLPAEQHPVLLGSTSFALLCQLSVKKIQLFDTQDLINVLKAFVILGIPHSHSMLDVYETKCCHQVWEMNMDQLLLVADLWRYLGRKVPRFLNIFSSYLNLHWKDLSLSQLVHLIYVIGENRQVSQDLMQKLESLILKYIDLINLEEVGTICLGFFKSSTNLSEFVMRKIGDLACANIQHLSSRSLVNIVKMFRFTHVDHINFMKQIGEIAPQRIPSLGVQGVMHLTLYCSALRFLNEGVMNAVAASLPPRVAHCRSKDVAKILWSFGTLNYKPPNAEEFYSSLISEIHRKMPEFNQYPEHLPTCLLGLAFLEYFPVELIDFALSPGFVRLAQERTKFDLLKELYTLDGTVGIECPDYRGNRLSTHLQQEGSELLWYLAEKDMNSKPEFLETVFLLETMLGGPQYVKHHMILPHTRSSDLEVQLDVNLKPLPFNREATPAENVAKLRLEHVGVSLTDDLMNKLLKGKARGHFQGKTESEPGQQPMELENKAAVPLGGFLCNVADKSGAMEMAGLCPAACMQTPRMKLAVQFTNRNQYCYGSRDLLGLHNMKRRQLARLGYRVVELSYWEWLPLLKRTRLEKLAFLHEKVFTSAL
B3: Mitogen-activated protein kinase 12 (Homo sapiens), P53778 (parent)
chain: MSSPPPARSGFYRQEVTKTAWEVRAVYRDLQPVGSGAYGAVCSAVDGRTGAKVAIKKLYRPFQSELFAKRAYRELRLLKHMRHENVIGLLDVFTPDETLDDFTDFYLVMPFMGTDLGKLMKHEKLGEDRIQFLVYQMLKGLRYIHAAGIIHRDLKPGNLAVNEDCELKILDFGLARQADSEMTGYVVTRWYRAPEVILNWMRYTQTVDIWSVGCIMAEMITGKTLFKGSDHLDQLKEIMKVTGTPPAEFVQRLQSDEAKNYMKGLPELEKKDFASILTNASPLAVNLLEKMLVLDAEQRVTAGEALAHPYFESLHDTEDEPQVQKYDDSFDDVDRTLDEWKRVTYKEVLSFKPPRQLGARVSKETPL
B4: Protein FAM163B (Homo sapiens), P0C2L3 (parent)
chain: MTAGTVVITGGILATVILLCIIAVLCYCRLQYYCCKKDESEEDEEEPDFAVHSHLPPLHSNRNLVLTNGPALYPTASTSFSQKSPQARALCRSCSHCEPPTFFLQEPPEEEEDVLNGGERVLYKSVSQEDVELPPGGFGGLQALNPNRLSAMREAFARSRSISTDV
B5: Guanylate cyclase soluble subunit alpha-2 (Homo sapiens), P33402 (parent)
chain: MSRRKISSESFSSLGSDYLETSPEEEGECPLSRLCWNGSRSPPGPLEPSPAAAAAAAAPAPTPAASAAAAAATAGARRVQRRRRVNLDSLGESISRLTAPSPQTIQQTLKRTLQYYEHQVIGYRDAEKNFHNISNRCSYADHSNKEEIEDVSGILQCTANILGLKFEEIQKRFGEEFFNICFHENERVLRAVGGTLQDFFNGFDALLEHIRTSFGKQATLESPSFLCKELPEGTLMLHYFHPHHIVGFAMLGMIKAAGKKIYRLDVEVEQVANEKLCSDVSNPGNCSCLTFLIKECENTNIMKNLPQGTSQVPADLRISINTFCRAFPFHLMFDPSMSVLQLGEGLRKQLRCDTHKVLKFEDCFEIVSPKVNATFERVLLRLSTPFVIRTKPEASGSENKDKVMEVKGQMIHVPESNSILFLGSPCVDKLDELMGRGLHLSDIPIHDATRDVILVGEQAKAQDGLKKRMDKLKATLERTHQALEEEKKKTVDLLYSIFPGDVAQQLWQGQQVQARKFDDVTMLFSDIVGFTAICAQCTPMQVISMLNELYTRFDHQCGFLDIYKVETIGDAYCVAAGLHRKSLCHAKPIALMALKMMELSEEVLTPDGRPIQMRIGIHSGSVLAGVVGVRMPRYCLFGNNVTLASKFESGSHPRRINVSPTTYQLLKREESFTFIPRSREELPDNFPKEIPGICYFLEVRTGPKPPKPSLSSSRIKKVSYNIGTMFLRETSL
B6: Plasma membrane calcium-transporting ATPase 1 (Homo sapiens), P20020 (parent)
chain: MGDMANNSVAYSGVKNSLKEANHDGDFGITLAELRALMELRSTDALRKIQESYGDVYGICTKLKTSPNEGLSGNPADLERREAVFGKNFIPPKKPKTFLQLVWEALQDVTLIILEIAAIVSLGLSFYQPPEGDNALCGEVSVGEEEGEGETGWIEGAAILLSVVCVVLVTAFNDWSKEKQFRGLQSRIEQEQKFTVIRGGQVIQIPVADITVGDIAQVKYGDLLPADGILIQGNDLKIDESSLTGESDHVKKSLDKDPLLLSGTHVMEGSGRMVVTAVGVNSQTGIIFTLLGAGGEEEEKKDEKKKEKKNKKQDGAIENRNKAKAQDGAAMEMQPLKSEEGGDGDEKDKKKANLPKKEKSVLQGKLTKLAVQIGKAGLLMSAITVIILVLYFVIDTFWVQKRPWLAECTPIYIQYFVKFFIIGVTVLVVAVPEGLPLAVTISLAYSVKKMMKDNNLVRHLDACETMGNATAICSDKTGTLTMNRMTVVQAYINEKHYKKVPEPEAIPPNILSYLVTGISVNCAYTSKILPPEKEGGLPRHVGNKTECALLGLLLDLKRDYQDVRNEIPEEALYKVYTFNSVRKSMSTVLKNSDGSYRIFSKGASEIILKKCFKILSANGEAKVFRPRDRDDIVKTVIEPMASEGLRTICLAFRDFPAGEPEPEWDNENDIVTGLTCIAVVGIEDPVRPEVPDAIKKCQRAGITVRMVTGDNINTARAIATKCGILHPGEDFLCLEGKDFNRRIRNEKGEIEQERIDKIWPKLRVLARSSPTDKHTLVKGIIDSTVSDQRQVVAVTGDGTNDGPALKKADVGFAMGIAGTDVAKEASDIILTDDNFTSIVKAVMWGRNVYDSISKFLQFQLTVNVVAVIVAFTGACITQDSPLKAVQMLWVNLIMDTLASLALATEPPTESLLLRKPYGRNKPLISRTMMKNILGHAFYQLVVVFTLLFAGEKFFDIDSGRNAPLHAPPSEHYTIVFNTFVLMQLFNEINARKIHGERNVFEGIFNNAIFCTIVLGTFVVQIIIVQFGGKPFSCSELSIEQWLWSIFLGMGTLLWGQLISTIPTSRLKFLKEAGHGTQKEEIPEEELAEDVEEIDHAERELRRGQILWFRGLNRIQTQIRVVNAFRSSLYEGLEKPESRSSIHNFMTHPEFRIEDSEPHIPLIDDTDAEDDAPTKRNSSPPPSPNKNNNAVDSGIHLTIEMNKSATSSSPGSPLHSLETSL
B7: Corticotropin-releasing factor receptor 1 (Homo sapiens), P34998-1 (parent)
chain: MGGHPQLRLVKALLLLGLNPVSASLQDQHCESLSLASNISGLQCNASVDLIGTCWPRSPAGQLVVRPCPAFFYGVRYNTTNNGYRECLANGSWAARVNYSECQEILNEEKKSKVHYHVAVIINYLGHCISLVALLVAFVLFLRLRPGCTHWGDQADGALEVGAPWSGAPFQVRRSIRCLRNIIHWNLISAFILRNATWFVVQLTMSPEVHQSNVGWCRLVTAAYNYFHVTNFFWMFGEGCYLHTAIVLTYSTDRLRKWMFICIGWGVPFPIIVAWAIGKLYYDNEKCWFGKRPGVYTDYIYQGPMILVLLINFIFLFNIVRILMTKLRASTTSETIQYRKAVKATLVLLPLLGITYMLFFVNPGEDEVSRVVFIYFNSFLESFQGFFVSVFYCFLNSEVRSAIRKRWHRWQDKHSIRARVARAMSIPTSPTRVSFHSIKQSTAV

Variants of: B1
Conditions: with scrib_human SCRIB
Target sequence in this assay (Q14160 whole entry): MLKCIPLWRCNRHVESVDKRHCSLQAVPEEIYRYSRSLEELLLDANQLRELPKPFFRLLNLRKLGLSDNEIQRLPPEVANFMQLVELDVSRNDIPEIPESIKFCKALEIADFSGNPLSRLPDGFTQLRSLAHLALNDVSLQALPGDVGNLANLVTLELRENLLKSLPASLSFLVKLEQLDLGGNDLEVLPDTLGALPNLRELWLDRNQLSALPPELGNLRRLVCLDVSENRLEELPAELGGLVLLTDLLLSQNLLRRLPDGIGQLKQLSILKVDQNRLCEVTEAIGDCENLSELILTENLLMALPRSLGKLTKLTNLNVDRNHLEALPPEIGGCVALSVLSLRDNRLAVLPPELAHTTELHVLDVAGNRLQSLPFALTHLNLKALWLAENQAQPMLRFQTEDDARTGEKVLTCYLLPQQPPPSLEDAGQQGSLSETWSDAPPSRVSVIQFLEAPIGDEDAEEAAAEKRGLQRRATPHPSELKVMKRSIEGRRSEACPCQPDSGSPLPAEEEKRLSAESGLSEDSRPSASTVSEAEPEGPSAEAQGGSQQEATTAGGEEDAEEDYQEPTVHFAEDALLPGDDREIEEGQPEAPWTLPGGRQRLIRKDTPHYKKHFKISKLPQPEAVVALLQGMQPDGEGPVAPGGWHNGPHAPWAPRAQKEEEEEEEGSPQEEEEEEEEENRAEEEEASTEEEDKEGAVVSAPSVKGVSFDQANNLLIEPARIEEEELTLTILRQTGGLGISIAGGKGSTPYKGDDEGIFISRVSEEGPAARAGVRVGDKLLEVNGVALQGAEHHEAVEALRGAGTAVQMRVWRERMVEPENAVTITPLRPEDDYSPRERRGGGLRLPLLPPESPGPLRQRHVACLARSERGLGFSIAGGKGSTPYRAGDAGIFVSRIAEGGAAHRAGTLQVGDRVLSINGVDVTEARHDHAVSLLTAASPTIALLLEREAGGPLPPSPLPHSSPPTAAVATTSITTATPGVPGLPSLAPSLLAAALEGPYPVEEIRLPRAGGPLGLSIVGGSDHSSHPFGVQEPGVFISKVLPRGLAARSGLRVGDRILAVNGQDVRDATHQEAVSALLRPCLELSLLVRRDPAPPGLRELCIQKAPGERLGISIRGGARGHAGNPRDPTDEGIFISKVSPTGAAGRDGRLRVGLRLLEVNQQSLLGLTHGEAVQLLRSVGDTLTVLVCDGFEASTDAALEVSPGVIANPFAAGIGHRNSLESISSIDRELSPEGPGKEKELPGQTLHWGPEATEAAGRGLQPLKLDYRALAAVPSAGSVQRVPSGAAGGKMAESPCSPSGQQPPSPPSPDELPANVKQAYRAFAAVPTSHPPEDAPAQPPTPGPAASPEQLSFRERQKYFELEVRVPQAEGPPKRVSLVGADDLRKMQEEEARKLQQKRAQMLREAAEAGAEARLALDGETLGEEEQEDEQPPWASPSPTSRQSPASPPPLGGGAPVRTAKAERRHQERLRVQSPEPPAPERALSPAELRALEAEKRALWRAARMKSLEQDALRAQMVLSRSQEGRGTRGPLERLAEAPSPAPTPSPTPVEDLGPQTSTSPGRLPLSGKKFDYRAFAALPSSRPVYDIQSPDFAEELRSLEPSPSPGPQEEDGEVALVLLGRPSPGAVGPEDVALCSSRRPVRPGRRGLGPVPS

Row | Variant | effect of a mutation on the interaction
1 | S1238E;S1242E | with no effect
2 | T1241E | decreasing interaction strength

Variants of: B2
Conditions: with scrib_human SCRIB
Target sequence in this assay (Q14160 whole entry): as above

Row | Variant | effect of a mutation on the interaction
3 | T761E | causing an interaction

Variants of: B2
Conditions: with scrib_human SCRIB
Remark: another data set of the same source
Target sequence in this assay (Q14160 whole entry): as above

Row | Variant | effect of a mutation on the interaction
4 | T761E | increasing interaction strength

Variants of: B3
Conditions: with scrib_human SCRIB
Target sequence in this assay (Q14160 whole entry): as above

Row | Variant | effect of a mutation on the interaction
5 | T365E | disrupting interaction strength

Variants of: B3
Conditions: with dlg1_human DLG1, Q12959
Target sequence in this assay (Q12959 whole entry, looked up): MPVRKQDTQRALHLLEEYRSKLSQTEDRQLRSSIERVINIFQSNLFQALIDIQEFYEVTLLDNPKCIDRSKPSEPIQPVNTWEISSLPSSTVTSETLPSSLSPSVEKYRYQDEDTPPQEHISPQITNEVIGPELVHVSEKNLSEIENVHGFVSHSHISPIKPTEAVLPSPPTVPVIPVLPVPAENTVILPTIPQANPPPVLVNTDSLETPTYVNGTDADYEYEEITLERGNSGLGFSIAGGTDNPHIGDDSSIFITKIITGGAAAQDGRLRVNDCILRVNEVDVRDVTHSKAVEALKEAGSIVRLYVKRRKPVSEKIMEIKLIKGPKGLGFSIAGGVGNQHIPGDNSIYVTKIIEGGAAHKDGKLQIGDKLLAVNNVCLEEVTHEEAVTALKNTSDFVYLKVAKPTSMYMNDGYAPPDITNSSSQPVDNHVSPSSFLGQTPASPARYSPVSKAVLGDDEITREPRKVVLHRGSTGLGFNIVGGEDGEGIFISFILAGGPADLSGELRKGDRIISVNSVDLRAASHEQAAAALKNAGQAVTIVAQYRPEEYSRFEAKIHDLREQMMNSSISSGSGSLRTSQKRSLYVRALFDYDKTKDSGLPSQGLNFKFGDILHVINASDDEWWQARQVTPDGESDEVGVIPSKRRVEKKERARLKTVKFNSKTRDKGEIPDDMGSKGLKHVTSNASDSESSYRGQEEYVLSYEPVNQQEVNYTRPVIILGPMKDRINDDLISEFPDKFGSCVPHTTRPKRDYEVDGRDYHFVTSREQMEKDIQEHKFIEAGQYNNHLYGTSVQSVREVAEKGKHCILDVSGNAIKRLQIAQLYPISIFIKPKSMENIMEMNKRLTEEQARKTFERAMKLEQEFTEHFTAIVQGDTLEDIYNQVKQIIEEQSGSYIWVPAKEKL

Row | Variant | effect of a mutation on the interaction
6 | T365E | disrupting interaction strength

Variants of: B4
Conditions: with scrib_human SCRIB
Target sequence in this assay (Q14160 whole entry): as the sequence (Q14160 whole entry) above

Row | Variant | effect of a mutation on the interaction
7 | T164E | disrupting interaction strength

Variants of: B4
Conditions: with dlg1_human DLG1, Q12959
Target sequence in this assay (Q12959 whole entry, looked up): as the sequence (Q12959 whole entry, looked up) above

Row | Variant | effect of a mutation on the interaction
8 | T164E | disrupting interaction strength

Variants of: B4
Conditions: with scrib_human SCRIB
Remark: another data set of the same source
Target sequence in this assay (Q14160 whole entry): as the sequence (Q14160 whole entry) above

Row | Variant | effect of a mutation on the interaction
9 | S163E | with no effect

Variants of: B5
Conditions: with scrib_human SCRIB

Row | Variant | effect of a mutation on the interaction
10 | S731E | increasing interaction strength

Variants of: B6
Conditions: with scrib_human SCRIB

Row | Variant | effect of a mutation on the interaction
11 | S1219E | increasing interaction strength

Variants of: B6
Conditions: with scrib_human SCRIB
Remark: another data set of the same source

Row | Variant | effect of a mutation on the interaction
12 | S1215E;S1219E | increasing interaction strength

Variants of: B7
Conditions: with scrib_human SCRIB

Row | Variant | effect of a mutation on the interaction
13 | S441E | with no effect

Variants of: B7
Conditions: with dlg1_human DLG1, Q12959
Target sequence in this assay (Q12959 whole entry, looked up): as the sequence (Q12959 whole entry, looked up) above

Row | Variant | effect of a mutation on the interaction
14 | S441E | increasing interaction strength
